{"source": "patent US20140228277A1", "about": "(Genentech, published 2014)", "binders": {"B1": {"name": "biotinylated BACE020 (Ac-NEESMYCRLLGIGCG-(PEG)3-biotin) (peptide)", "peptide": "Ac-NEESMYCRLLGIGCG-{NH(CH2)3(OCH2CH2)2O(CH2)3NH-biotin}", "modifications": "disulfide 7-14", "notes": "also called C-terminal biotin tagged BACE020 peptide"}}, "experiment_in_all_cases": "ELISA; biotinylated BACE020 on plate-coated BACE1 ECD mutant; ratio to WT", "key": {"[1]": {"target": "T1, human BACE1 ECD (22-457) Y132A, His8 (human, UniProt P56817 22-457)", "T1 construct": "also called Y132A (71)", "T1 sequence (P56817 other isoform, or with tags, fused parts or gaps Y132A Y132A)": "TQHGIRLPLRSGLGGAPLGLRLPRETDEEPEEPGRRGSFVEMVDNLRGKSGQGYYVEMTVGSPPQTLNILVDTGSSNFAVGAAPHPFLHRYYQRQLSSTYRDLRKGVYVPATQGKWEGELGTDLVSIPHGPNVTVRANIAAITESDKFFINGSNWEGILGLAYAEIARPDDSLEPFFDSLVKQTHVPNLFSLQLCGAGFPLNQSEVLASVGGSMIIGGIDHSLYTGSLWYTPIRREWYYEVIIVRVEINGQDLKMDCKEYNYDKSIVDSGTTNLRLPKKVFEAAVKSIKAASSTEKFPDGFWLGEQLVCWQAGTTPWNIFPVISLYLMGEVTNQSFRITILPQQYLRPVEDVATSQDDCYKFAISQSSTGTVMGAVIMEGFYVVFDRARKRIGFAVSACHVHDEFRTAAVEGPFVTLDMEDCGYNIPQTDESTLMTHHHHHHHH", "description": "(§1) Maxisorp microtiter plates (Nalge Nunc International, Rochester, N.Y.) were coated overnight at 4° C. with 2 μg/ml BACE1 mutant in 50 mM carbonate, pH 9.6. The coated wells were washed with buffer (PBS, 0.05% Polysorbate 20) and blocked with assay buffer (PBS, pH 7.4, 0.5% BSA, 0.05% Tween 20, 15 ppm Proclin) for 1 h at room temperature with gentle shaking. […] After washing, the amount of peptide bound to the plate was detected by the addition of Streptavidin-Horseradish Peroxidase Conjugate (GE Healthcare, Piscataway, N.J.) followed by the addition of TMB/H₂O₂ substrate (KPL, Gaithersburg, Md.). The reaction was quenched with 1 M phosphoric acid and the A₄₅₀ measured on a Molecular Devices SpectraMax Plus384 microplate reader. Concentrations to give half maximal effective concentration (EC₅₀) were determined using a 4-parameter non-linear regression curve-fitting program with Kaleidagraph (Synergy Software, Reading, Pa.). […] Concentrations to give half maximal inhibition concentration (IC₅₀) were determined using a 4-parameter non-linear regression curve-fitting program with Kaleidagraph.\n(§2) The fold decrease in binding affinity was determined as the relative EC₅₀ values of EC₅₀ (mut)/EC₅₀ (WT), which are listed in Table 3."}, "[2]": {"target": "T2, human BACE1 ECD (22-457) F169A, His8 (human, UniProt P56817 22-457)", "T2 construct": "also called F169A (108)", "T2 sequence (P56817 other isoform, or with tags, fused parts or gaps F169A F169A)": "as the sequence (P56817 other isoform, or with tags, fused parts or gaps Y132A Y132A) above, with A111Y, F148A counted along it", "description": "as §1, §2"}, "[3]": {"target": "T3, human BACE1 ECD (22-457) G74A, His8 (human, UniProt P56817 22-457)", "T3 construct": "also called G74A (13)", "T3 sequence (P56817 other isoform, or with tags, fused parts or gaps G74A G74A)": "as the sequence (P56817 other isoform, or with tags, fused parts or gaps Y132A Y132A) above, with G53A, A111Y counted along it", "description": "as §1, §2"}, "[4]": {"target": "T4, human BACE1 ECD (22-457) I171A, His8 (human, UniProt P56817 22-457)", "T4 construct": "also called I171A (110)", "T4 sequence (P56817 other isoform, or with tags, fused parts or gaps I171A I171A)": "as the sequence (P56817 other isoform, or with tags, fused parts or gaps Y132A Y132A) above, with A111Y, I150A counted along it", "description": "as §1, §2"}, "[5]": {"target": "T5, human BACE1 ECD (22-457) K382A, His8 (human, UniProt P56817 22-457)", "T5 construct": "also called K382A (321)", "T5 sequence (P56817 other isoform, or with tags, fused parts or gaps K382A K382A)": "as the sequence (P56817 other isoform, or with tags, fused parts or gaps Y132A Y132A) above, with A111Y, K361A counted along it", "description": "as §1, §2"}, "[6]": {"target": "T6, human BACE1 ECD (22-457) Q73A, His8 (human, UniProt P56817 22-457)", "T6 construct": "also called Q73A (12)", "T6 sequence (P56817 other isoform, or with tags, fused parts or gaps Q73A Q73A)": "as the sequence (P56817 other isoform, or with tags, fused parts or gaps Y132A Y132A) above, with Q52A, A111Y counted along it", "description": "as §1, §2"}, "[7]": {"target": "T7, human BACE1 ECD (22-457) N294A, His8 (human, UniProt P56817 22-457)", "T7 construct": "also called N294A (233)", "T7 sequence (P56817 other isoform, or with tags, fused parts or gaps N294A N294A)": "as the sequence (P56817 other isoform, or with tags, fused parts or gaps Y132A Y132A) above, with A111Y, N273A counted along it", "description": "as §1, §2"}}, "note": "Starred links: 1 amine or outer side, 2 acyl side, 3 side chain; linkers in the order of their positions; H or OH if unused. Positions of bridges follow the written chain, without caps; N, C: chain ends. NH(CH2)3(OCH2CH2)2O(CH2)3NH = C(CN[*:1])COCCOCCOCCCN[*:2]"}
{"binder": "B1", "values": [{"measurement": "Fold Decrease in Binding EC50 (Mut)/EC50 (WT)", "setting": "[1]", "value": 72.2, "unit": "fold"}, {"measurement": "Fold Decrease in Binding EC50 (Mut)/EC50 (WT)", "setting": "[2]", "value": 1.9, "unit": "fold"}, {"measurement": "Fold Decrease in Binding EC50 (Mut)/EC50 (WT)", "setting": "[3]", "value": 488, "unit": "fold"}, {"measurement": "Fold Decrease in Binding EC50 (Mut)/EC50 (WT)", "setting": "[4]", "value": 1020, "unit": "fold"}, {"measurement": "Fold Decrease in Binding EC50 (Mut)/EC50 (WT)", "setting": "[5]", "value": 4.5, "unit": "fold"}, {"measurement": "Fold Decrease in Binding EC50 (Mut)/EC50 (WT)", "setting": "[6]", "value": 1.7, "unit": "fold"}, {"measurement": "Fold Decrease in Binding EC50 (Mut)/EC50 (WT)", "setting": "[7]", "value": 2.4, "unit": "fold"}]}
